According to US20240036027A1:

Columns and labels:
[1] = biological target: OmpG^Q224-FLAG (Escherichia coli) (UniProt P76045); test: single-channel current recording, 30 nM antibody, 50 mV, 30 pA pores
[2] = biological target: OmpG^Q224-FLAG (Escherichia coli) (UniProt P76045); test: single-channel current recording, 30 nM FG4R
[3] = biological target: OmpG^L3-FLAG (Escherichia coli) (UniProt P76045); test: single-channel current recording, N=3 pores, n=9 binding events

Substance	reduction in current in the bound state [1]	reduction of current flow in the bound state [2]	reduction in pore conductance in the bound state [3]
FLAG tag monoclonal antibody OTI4C5 (OriGene Technologies)	20 pA	–	–
Monoclonal mouse anti-FLAG antibody FG4R [RRID AB_1957945]	–	10%	5.02%
